Results: IntAct's records for PubMed 29892012

B1: Coiled-coil alpha-helical rod protein 1 (Homo sapiens), Q8TD31 (parent)
chain: MFPPSGSTGLIPPSHFQARPLSTLPRMAPTWLSDIPLVQPPGHQDVSERRLDTQRPQVTMWERDVSSDRQEPGRRGRSWGLEGSQALSQQAEVIVRQLQELRRLEEEVRLLRETSLQQKMRLEAQAMELEALARAEKAGRAEAEGLRAALAGAEVVRKNLEEGSQRELEEVQRLHQEQLSSLTQAHEEALSSLTSKAEGLEKSLSSLETRRAGEAKELAEAQREAELLRKQLSKTQEDLEAQVTLVENLRKYVGEQVPSEVHSQTWELERQKLLETMQHLQEDRDSLHATAELLQVRVQSLTHILALQEEELTRKVQPSDSLEPEFTRKCQSLLNRWREKVFALMVQLKAQELEHSDSVKQLKGQVASLQEKVTSQSQEQAILQRSLQDKAAEVEVERMGAKGLQLELSRAQEARRRWQQQTASAEEQLRLVVNAVSSSQIWLETTMAKVEGAAAQLPSLNNRLSYAVRKVHTIRGLIARKLALAQLRQESCPLPPPVTDVSLELQQLREERNRLDAELQLSARLIQQEVGRAREQGEAERQQLSKVAQQLEQELQQTQESLASLGLQLEVARQGQQESTEEAASLRQELTQQQELYGQALQEKVAEVETRLREQLSDTERRLNEARREHAKAVVSLRQIQRRAAQEKERSQELRRLQEEARKEEGQRLARRLQELERDKNLMLATLQQEGLLSRYKQQRLLTVLPSLLDKKKSVVSSPRPPECSASAPVAAAVPTRESIKGSLSVLLDDLQDLSEAISKEEAVCQGDNLDRCSSSNPQMSS
partner: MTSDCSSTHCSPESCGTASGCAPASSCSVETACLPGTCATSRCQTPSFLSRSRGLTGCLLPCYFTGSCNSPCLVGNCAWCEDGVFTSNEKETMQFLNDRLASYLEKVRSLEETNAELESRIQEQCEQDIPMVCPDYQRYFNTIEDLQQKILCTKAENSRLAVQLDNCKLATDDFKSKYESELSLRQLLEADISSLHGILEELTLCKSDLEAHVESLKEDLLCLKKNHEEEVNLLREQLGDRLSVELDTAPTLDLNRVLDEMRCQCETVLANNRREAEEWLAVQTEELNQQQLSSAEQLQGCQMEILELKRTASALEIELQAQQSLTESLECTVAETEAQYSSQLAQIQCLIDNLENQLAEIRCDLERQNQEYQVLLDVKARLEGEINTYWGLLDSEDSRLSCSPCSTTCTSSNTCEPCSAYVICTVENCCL
B2: TBC1 domain family member 22B (Homo sapiens), Q9NU19 (parent)
chain: MAAENSKQFWKRSAKLPGSIQPVYGAQHPPLDPRLTKNFIKERSKVNTVPLKNKKASSFHEFARNTSDAWDIGDDEEEDFSSPSFQTLNSKVALATAAQVLENHSKLRVKPERSQSTTSDVPANYKVIKSSSDAQLSRNSSDTCLRNPLHKQQSLPLRPIIPLVARISDQNASGAPPMTVREKTRLEKFRQLLSSQNTDLDELRKCSWPGVPREVRPITWRLLSGYLPANTERRKLTLQRKREEYFGFIEQYYDSRNEEHHQDTYRQIHIDIPRTNPLIPLFQQPLVQEIFERILFIWAIRHPASGYVQGINDLVTPFFVVFLSEYVEEDVENFDVTNLSQDMLRSIEADSFWCMSKLLDGIQDNYTFAQPGIQKKVKALEELVSRIDEQVHNHFRRYEVEYLQFAFRWMNNLLMRELPLRCTIRLWDTYQSEPEGFSHFHLYVCAAFLIKWRKEILDEEDFQGLLMLLQNLPTIHWGNEEIGLLLAEAYRLKYMFADAPNHYRR
B3: Heterogeneous nuclear ribonucleoprotein F (Homo sapiens), P52597 (parent)
chain: MMLGPEGGEGFVVKLRGLPWSCSVEDVQNFLSDCTIHDGAAGVHFIYTREGRQSGEAFVELGSEDDVKMALKKDRESMGHRYIEVFKSHRTEMDWVLKHSGPNSADSANDGFVRLRGLPFGCTKEEIVQFFSGLEIVPNGITLPVDPEGKITGEAFVQFASQELAEKALGKHKERIGHRYIEVFKSSQEEVRSYSDPPLKFMSVQRPGPYDRPGTARRYIGIVKQAGLERMRPGAYSTGYGGYEEYSGLSDGYGFTTDLFGRDLSYCLSGMYDHRYGDSEFTVQSTTGHCVHMRGLPYKATENDIYNFFSPLNPVRVHIEIGPDGRVTGEADVEFATHEEAVAAMSKDRANMQHRYIELFLNSTTGASNGAYSSQVMQGMGVSAAQATYSGLESQSVSGCYGAGYSGQNSMGGYD
B4: Ligand of Numb protein X 2 (Homo sapiens), Q8N448 (parent)
chain: MGTTSDEMVSVEQTSSSSLNPLCFECGQQHWTRENHLYNYQNEVDDDLVCHICLQPLLQPLDTPCGHTFCYKCLRNFLQEKDFCPLDRKRLHFKLCKKSSILVHKLLDKLLVLCPFSSVCKDVMQRCDLEAHLKNRCPGASHRRVALERRKTSRTQAEIENENGPTLLDPAGTLSPEADCLGTGAVPVERHLTSASLSTWSEEPGLDNPAFEESAGADTTQQPLSLPEGEITTIEIHRSNPYIQLGISIVGGNETPLINIVIQEVYRDGVIARDGRLLAGDQILQVNNYNISNVSHNYARAVLSQPCNTLHLTVLRERRFGNRAHNHSDSNSPREEIFQVALHKRDSGEQLGIKLVRRTDEPGVFILDLLEGGLAAQDGRLSSNDRVLAINGHDLKYGTPELAAQIIQASGERVNLTIARPGKPQPGNTIREAGNHSSSSQHHTPPPYYSRPSSHKDLTQCVTCQEKHITVKKEPHESLGMTVAGGRGSKSGELPIFVTSVPPHGCLARDGRIKRGDVLLNINGIDLTNLSHSEAVAMLKASAASPAVALKALEVQIVEEATQNAEEQPSTFSENEYDASWSPSWVMWLGLPSTLHSCHDIVLRRSYLGSWGFSIVGGYEENHTNQPFFIKTIVLGTPAYYDGRLKCGDMIVAVNGLSTVGMSHSALVPMLKEQRNKVTLTVICWPGSLV
partner: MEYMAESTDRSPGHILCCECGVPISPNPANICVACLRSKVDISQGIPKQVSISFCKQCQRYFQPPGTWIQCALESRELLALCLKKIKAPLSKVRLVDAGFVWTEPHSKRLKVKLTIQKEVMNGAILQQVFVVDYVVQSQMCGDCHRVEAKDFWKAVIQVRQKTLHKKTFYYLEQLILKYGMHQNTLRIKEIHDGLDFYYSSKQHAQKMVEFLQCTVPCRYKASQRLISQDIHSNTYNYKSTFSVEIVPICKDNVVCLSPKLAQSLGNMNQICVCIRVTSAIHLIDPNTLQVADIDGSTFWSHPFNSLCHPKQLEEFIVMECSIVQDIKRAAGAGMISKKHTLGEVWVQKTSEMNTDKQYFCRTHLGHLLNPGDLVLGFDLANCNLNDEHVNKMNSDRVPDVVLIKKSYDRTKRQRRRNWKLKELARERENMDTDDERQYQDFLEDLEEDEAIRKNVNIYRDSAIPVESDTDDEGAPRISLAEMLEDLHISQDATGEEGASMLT
B5: Liprin-alpha-1 (Homo sapiens), Q13136 (parent)
chain: MMCEVMPTISEAEGPPGGGGGHGSGSPSQPDADSHFEQLMVSMLEERDRLLDTLRETQETLALTQGKLHEVGHERDSLQRQLNTALPQEFAALTKELNVCREQLLEREEEIAELKAERNNTRLLLEHLECLVSRHERSLRMTVVKRQAQSPAGVSSEVEVLKALKSLFEHHKALDEKVRERLRVALERCSLLEEELGATHKELMILKEQNNQKKTLTDGVLDINHEQENTPSTSGKRSSDGSLSHEEDLAKVIELQEIISKQSREQSQMKERLASLSSHVTELEEDLDTARKDLIKSEEMNTKLQRDVREAMAQKEDMEERITTLEKRYLAAQREATSVHDLNDKLENEIANKDSMHRQTEDKNRQLQERLELAEQKLQQTLRKAETLPEVEAELAQRVAALSKAEERHGNIEERLRQMEAQLEEKNQELQRARQREKMNEEHNKRLSDTVDKLLSESNERLQLHLKERMAALEDKNSLLREVESAKKQLEETQHDKDQLVLNIEALRAELDHMRLRGASLHHGRPHLGSVPDFRFPMADGHTDSYSTSAVLRRPQKGRLAALRDEPSKVQTLNEQDWERAQQASVLANVAQAFESDADVSDGEDDRDTLLSSVDLLSPSGQADAHTLAMMLQEQLDAINKEIRLIQEEKENTEQRAEEIESRVGSGSLDNLGRFRSMSSIPPYPASSLASSSPPGSGRSTPRRIPHSPAREVDRLGVMTLLPPSREEVRDDKTTIKCETSPPSSPRALRLDRLHKGALHTVSHEDIRDIRNSTGSQDGPVSNPSSSNSSQDSLHKAPKKKGIKSSIGRLFGKKEKGRPGQTGKEALGQAGVSETDNSSQDALGLSKLGGQAEKNRKLQKKHELLEEARRQGLPFAQWDGPTVVVWLELWVGMPAWYVAACRANVKSGAIMSALSDTEIQREIGISNPLHRLKLRLAIQEIMSLTSPSAPPTSRTTLAYGDMNHEWIGNEWLPSLGLPQYRSYFMECLVDARMLDHLTKKDLRGQLKMVDSFHRNSFQCGIMCLRRLNYDRKELERKREESQSEIKDVLVWSNDRVIRWILSIGLKEYANNLIESGVHGALLALDETFDFSALALLLQIPTQNTQARAVLEREFNNLLVMGTDRRFDEDDDKSFRRAPSWRKKFRPKDIRGLAAGSAETLPANFRVTSSMSSPSMQPKKMQMDGNVSGTQRLDSATVRTYSC
partner: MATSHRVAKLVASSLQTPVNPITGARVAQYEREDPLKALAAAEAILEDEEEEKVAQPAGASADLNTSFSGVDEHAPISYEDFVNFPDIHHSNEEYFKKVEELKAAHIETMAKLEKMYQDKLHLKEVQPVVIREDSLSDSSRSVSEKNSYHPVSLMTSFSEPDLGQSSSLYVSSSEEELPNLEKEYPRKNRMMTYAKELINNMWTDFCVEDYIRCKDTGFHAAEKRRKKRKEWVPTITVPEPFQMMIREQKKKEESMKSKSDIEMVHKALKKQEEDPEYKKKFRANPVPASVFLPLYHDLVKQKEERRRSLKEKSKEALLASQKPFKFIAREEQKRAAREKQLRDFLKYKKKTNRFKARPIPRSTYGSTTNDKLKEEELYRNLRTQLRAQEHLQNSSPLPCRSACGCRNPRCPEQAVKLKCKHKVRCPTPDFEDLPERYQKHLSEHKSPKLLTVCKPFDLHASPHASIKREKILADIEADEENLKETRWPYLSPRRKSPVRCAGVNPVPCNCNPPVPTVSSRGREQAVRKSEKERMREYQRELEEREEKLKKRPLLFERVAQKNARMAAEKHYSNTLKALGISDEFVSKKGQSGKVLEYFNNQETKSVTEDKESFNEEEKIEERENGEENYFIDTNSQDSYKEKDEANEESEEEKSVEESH

Variants of: B1
Settings: with KRT40, Q6A162

Variant	effect of a mutation on the interaction
W337R	with no effect

Variants of: B2
Settings: with fxr2_human FXR2, P51116
Sequence of fxr2_human FXR2, P51116 (P51116 whole entry): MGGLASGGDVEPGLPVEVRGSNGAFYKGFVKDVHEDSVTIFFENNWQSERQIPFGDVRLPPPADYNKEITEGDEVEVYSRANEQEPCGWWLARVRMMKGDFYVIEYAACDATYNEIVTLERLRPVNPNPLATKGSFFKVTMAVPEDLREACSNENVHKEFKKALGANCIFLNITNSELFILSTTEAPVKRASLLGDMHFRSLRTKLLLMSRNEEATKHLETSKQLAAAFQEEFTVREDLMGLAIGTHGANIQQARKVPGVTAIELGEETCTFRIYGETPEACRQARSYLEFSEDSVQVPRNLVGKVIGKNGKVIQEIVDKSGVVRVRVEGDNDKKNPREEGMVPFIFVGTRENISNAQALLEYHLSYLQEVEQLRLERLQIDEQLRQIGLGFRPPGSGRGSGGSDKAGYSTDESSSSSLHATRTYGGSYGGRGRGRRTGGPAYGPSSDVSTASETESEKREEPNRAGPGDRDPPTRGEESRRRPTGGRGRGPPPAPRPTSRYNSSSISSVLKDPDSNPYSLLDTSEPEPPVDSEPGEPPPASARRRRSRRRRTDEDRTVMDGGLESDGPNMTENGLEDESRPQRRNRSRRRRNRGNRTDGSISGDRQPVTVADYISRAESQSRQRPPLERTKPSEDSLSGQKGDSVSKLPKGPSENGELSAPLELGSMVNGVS

Variant	effect of a mutation on the interaction
A349T	disrupting interaction strength

Variants of: B2
Settings: with ikzf3_human IKZF3, Q9UKT9
Sequence of ikzf3_human IKZF3, Q9UKT9 (Q9UKT9 whole entry): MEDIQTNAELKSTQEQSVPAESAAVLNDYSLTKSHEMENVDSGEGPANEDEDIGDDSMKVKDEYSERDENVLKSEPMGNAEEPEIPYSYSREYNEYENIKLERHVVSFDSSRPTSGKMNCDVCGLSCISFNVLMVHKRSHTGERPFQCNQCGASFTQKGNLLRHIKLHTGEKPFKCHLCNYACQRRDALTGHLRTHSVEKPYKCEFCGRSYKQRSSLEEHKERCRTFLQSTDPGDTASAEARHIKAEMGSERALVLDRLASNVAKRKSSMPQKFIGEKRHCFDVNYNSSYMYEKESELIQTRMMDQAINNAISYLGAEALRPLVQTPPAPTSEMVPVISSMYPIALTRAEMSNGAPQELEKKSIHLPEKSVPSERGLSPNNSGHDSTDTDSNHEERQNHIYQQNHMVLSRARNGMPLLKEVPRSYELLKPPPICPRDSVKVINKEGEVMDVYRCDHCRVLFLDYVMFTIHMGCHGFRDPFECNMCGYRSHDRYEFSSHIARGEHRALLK

Variant	effect of a mutation on the interaction
A349T	disrupting interaction strength

Variants of: B2
Settings: with tacc3_human TACC3, Q9Y6A5

Variant	effect of a mutation on the interaction
A349T	disrupting interaction strength

Variants of: B2
Settings: with tri23_human TRIM23, P36406
Sequence of tri23_human TRIM23, P36406 (P36406 whole entry): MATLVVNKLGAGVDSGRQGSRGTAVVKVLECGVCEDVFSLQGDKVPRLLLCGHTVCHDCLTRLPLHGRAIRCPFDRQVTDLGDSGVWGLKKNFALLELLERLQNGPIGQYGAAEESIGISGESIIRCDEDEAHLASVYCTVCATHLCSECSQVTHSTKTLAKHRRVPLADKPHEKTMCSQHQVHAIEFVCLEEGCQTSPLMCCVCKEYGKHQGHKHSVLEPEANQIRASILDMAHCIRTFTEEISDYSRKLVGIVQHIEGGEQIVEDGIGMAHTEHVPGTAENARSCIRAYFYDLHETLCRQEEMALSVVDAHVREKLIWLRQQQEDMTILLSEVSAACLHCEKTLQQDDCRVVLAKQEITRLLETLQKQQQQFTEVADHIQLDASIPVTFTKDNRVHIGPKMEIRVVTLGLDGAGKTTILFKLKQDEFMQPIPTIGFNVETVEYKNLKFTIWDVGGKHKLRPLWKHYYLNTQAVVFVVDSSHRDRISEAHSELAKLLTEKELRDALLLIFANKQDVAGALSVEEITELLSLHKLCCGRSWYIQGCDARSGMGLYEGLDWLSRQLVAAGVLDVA

Variant	effect of a mutation on the interaction
A349T	disrupting interaction strength

Variants of: B2
Settings: with pnma5_human PNMA5, Q96PV4
Sequence of pnma5_human PNMA5, Q96PV4 (Q96PV4 whole entry): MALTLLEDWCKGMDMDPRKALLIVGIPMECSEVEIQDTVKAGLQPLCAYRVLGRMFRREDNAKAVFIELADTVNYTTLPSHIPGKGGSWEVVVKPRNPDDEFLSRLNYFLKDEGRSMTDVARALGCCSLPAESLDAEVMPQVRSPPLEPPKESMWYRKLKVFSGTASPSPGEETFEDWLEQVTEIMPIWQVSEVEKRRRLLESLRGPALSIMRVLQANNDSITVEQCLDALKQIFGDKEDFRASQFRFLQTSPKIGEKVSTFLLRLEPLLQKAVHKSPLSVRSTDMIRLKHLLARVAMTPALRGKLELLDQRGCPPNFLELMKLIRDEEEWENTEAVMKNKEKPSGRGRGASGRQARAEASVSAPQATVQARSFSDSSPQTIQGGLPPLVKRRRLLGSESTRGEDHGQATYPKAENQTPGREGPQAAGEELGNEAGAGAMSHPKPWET

Variant	effect of a mutation on the interaction
A349T	disrupting interaction strength

Variants of: B3
Settings: with hnrl1_human HNRNPUL1, Q9BUJ2
Sequence of hnrl1_human HNRNPUL1, Q9BUJ2 (Q9BUJ2 whole entry): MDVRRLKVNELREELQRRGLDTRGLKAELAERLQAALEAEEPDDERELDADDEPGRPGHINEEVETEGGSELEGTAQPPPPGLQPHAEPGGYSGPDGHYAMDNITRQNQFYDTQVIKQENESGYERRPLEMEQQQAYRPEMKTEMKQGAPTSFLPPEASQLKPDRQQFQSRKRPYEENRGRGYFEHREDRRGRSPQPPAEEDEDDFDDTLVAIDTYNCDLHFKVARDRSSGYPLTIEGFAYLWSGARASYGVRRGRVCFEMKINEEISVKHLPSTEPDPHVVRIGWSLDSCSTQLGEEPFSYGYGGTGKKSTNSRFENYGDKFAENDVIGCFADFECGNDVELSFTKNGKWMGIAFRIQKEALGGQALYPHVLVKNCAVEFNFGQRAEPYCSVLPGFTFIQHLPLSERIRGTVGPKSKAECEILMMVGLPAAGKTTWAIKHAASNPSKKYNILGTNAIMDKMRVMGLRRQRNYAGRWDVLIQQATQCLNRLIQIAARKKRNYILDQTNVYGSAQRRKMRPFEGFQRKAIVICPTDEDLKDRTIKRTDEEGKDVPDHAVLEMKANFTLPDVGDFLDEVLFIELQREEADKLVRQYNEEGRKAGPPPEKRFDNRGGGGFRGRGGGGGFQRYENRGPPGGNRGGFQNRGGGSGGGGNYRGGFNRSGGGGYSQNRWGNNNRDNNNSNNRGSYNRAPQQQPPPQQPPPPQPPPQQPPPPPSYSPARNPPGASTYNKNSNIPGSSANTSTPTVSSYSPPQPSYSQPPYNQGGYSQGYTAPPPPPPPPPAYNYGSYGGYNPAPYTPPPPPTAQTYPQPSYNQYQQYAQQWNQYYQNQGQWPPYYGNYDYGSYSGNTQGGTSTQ

Variant	effect of a mutation on the interaction
T48A	with no effect

Variants of: B4
Settings: with nmd3_human NMD3, Q96D46

Variant	effect of a mutation on the interaction
P669A	with no effect

Variants of: B5
Settings: with FAM161A

Variant	effect of a mutation on the interaction
L330F	disrupting interaction strength

Variants of: B5
Settings: with FAM161A
Remark: another data set of the same source

Variant	effect of a mutation on the interaction
P389L	with no effect
